B1: PRT-84 (protein)
chain: MANQEIRYSEETPYTVTSVWTKGVTPPTQFIQGEDVFHAPYKANQGWYDITKTFNGKDNLLCGAATAGNMLHWWFDQNKEYIEAYLKKHPEKQKIMFGDQELLDVRKVINTKDSQTDSKLFNYFKDKAFPNLSARRLGVMPDLVLDMFINGYYLNVGKTQTTDVNRTYQEKDKRGGIFDAVFTRGDQSKLLTSRHDFKEKSLKEISDLIKKELTEGKALGLSHTYANVRINHVINLWGADFDSEGNLKAIYVTDSDSDASIGMKKYFVGVNSSGKVAISAKEIEEDNIGAQVLGLFTLSSGQDIWNQTN
B2: PRT-85 (protein)
chain: MANQEIRYSEVTPKTITSVWTKGVTPPADFTQGEDVFHAPYKPNQGWYDINKTFNGKDNLLCGAATAGNMLHWWFDQNKEQIEAYLKKHPEKQKIMFGDQELLDVRKAINTKDDQTDSKLFNYFKDKAFPNLSARRLGVMPDHVLDMFINGYRLNVTKTQTTDVNRTYQTKDKRGGFFDAVFTRGDQSKLLTNRHDFKEKNLKEISDLIKKELTEGKALGLSHTYANVRINHVINLWGADFDSEGNLKAIYVTDSDSNASIGMKKYYVGVNSAGKVAISAKEIKGENIGAQVLGLYTLSTGQDIWNQTN
B3: PRT-672 (protein)
chain: MQITSVWTKGVTPPTPEQFTYQNEDVFHAPYIANQGWYDITKTFNGKDNLLCGAATAGNMLHWWFDQNKTEIENYLKKHPEKQKIIFNNQEMFDLRKAINTKDSQTNSALFEYFRDKAFPNLSARQLGVMPDHVLDMFINGYYLNVTKTQSTDVNRPYQTKDKRGGIFDHVFTRGDQSKLLTARHDLKNKTLNEISDLIKQELTEGKALALSHTYANVRINHVINLWGADFDAEGNLEAIYVTDSDSNASIGMKKYFVGVNSSGKVAISAKKIEDDNIGAQVLGLFTLSSGQDIWEQLSLEHHHHHH
B4: PRT-86 (protein)
chain: MANQEIRYSEEDPKHVTSVWTKGVTPPTDFTQGEDVLHAPYIANQGWYDITKTFNGKDDLLCGAATAGNMLHWWFDQNKEEIENYLKKHPEKQKIMFGDQELLDVRKVINTKDSQTNSKLFNYFREKAFPNLSARRLGVMPDLVLDMFINGYYLNVTKTQTTDVNRTYQTKDKRGGIFDAVFTRGDQTKLLTNRHDFKEKTLNEISDLIKQELQEGKALGLSHTYANVRINHVINLWGADFDSNGNLEAIYVTDSDANASIGMKKYFVGKNSAGKVAISAKEIKDDNIGAQVLGLFTLSTGQDIWNQTN
B5: PRT-87 (protein)
chain: MANQEIRYSEVTPYHITSVWTKGVTPPEQFTQGEDVFHAPYIANQGWYDITKTFNGKDNLLCGAATAGNMLHWWFDQNKEEIERYLKKYPEKQKIMFGDQELLDVRKVINTKDSQTNSKLFEYFRDKAFPNLSARRLGVMPDLVLDMFINGYYLSVTKTQTTDVNRTYGNKDNRGGIFDAVFTRGDQSKLLTNRHDFKEKNLKEISQLIKQELQEGKALALSHTYANVRINHVINLWGADFDSEGNLKAIYVTDSDSNASIGMKKYFVGVNSSGKVAISAKEIEEDNIGAQVLGLFTLSTGQDIWEQTN
B6: PRT-88 (protein)
chain: MANQEIRYSEVTPYHVTSVWTKGVTPPAKFTQGEDVFHAPYVANQGWYDITKTFNGKDDLLCGAATAGNMLHWWFDQNKEKIEAYLKKHPEKQKIMFGDQELLDVRKVINTKGDQTNSELFNYFRDKAFPGLSARRLGVMPDLVLDMFINGYYLNVYKTQTTDVNRTYQEKDRRGGIFDAVFTRGDQSKLLTSRHDFKEKNLKEISDLIKKELTEGKALGLSHTYANVRINHVINLWGADFDSNGNLKAIYVTDSDSNASIGMKKYFVGVNSAGKVAISAKEIKEDNIGAQVLGLFTLSTGQDIWNQTN
B7: PRT-90 (protein)
chain: MANQEIRYSEETPYHVTSVWTKGVTPPAKFTQGEDVFHAPYVANQGWYDITKTFNGKDDLLCGAATAGNMLHWWFDQNKEKIEAYLKKHPEKQKIMFGDQELLDVRKVINTKDDQTNSELFNYFRDKAFPGLSARRLGVMPDLVLDMFINGYYLNVYKTQTTDVNRTYQEKDRRGGIFDAVFTRGDQSKLLTSRHDFKEKTLKEISDLIKKELTEGKALGLSHTYANVRINHVINLWGADFDSNGNLKAIYVTDSDSNASIGMKKYFVGVNSAGKVAISAKEIKEDNIGAQVLGLFTLSTGQDIWNQTN
B8: PRT-94 (protein)
chain: MANQEIRYSEETPYHVTSVWTKGVTPPAKFTQGEDVFHAPYVANQGWYDITKTFNGKDDLLCGAATAGNMLHWWFDQNKEKIEAYLKKHPDKQKIMFGDQELLDVRKVINTKGDQTNSELFNYFRDKAFPGLSARRIGVMPDLVLDMFINGYYLNVYKTQTTDVNRTYQEKDRRGGIFDAVFTRGDQSKLLTSRHDFKEKTLKEISDLIKKELTEGKALGLSHTYANVRINHVINLWGADFDSNGNLKAIYVTDSDSNASIGMKKYFVGVNSAGKVAISAKEIKEDNIGAQVLGLFTLSTGQDSWNQTN
B9: PRT-92 (protein)
chain: MANQEIRYSEVTPYTITSVWTKGVTPPADFTQGEDVFHAPYVANQGWYDITKTFNGKDDLLCGAATAGNMLHWWFDQNKEKIEAYLKKHPEKQKIMFGDQELLDVRKAINTKDDQTNSELFNYFRDKAFPNLSARRLGVMPDLVLDMFINGYYLNVYKTQTTDVNRTYQEKDKRGGIFDAVFTRGDQSKLLTSRHDFKEKNLKEISDLIKQELTEGKALGLSHTYANVRINHVINLWGADFDSEGNLKAIYVTDSDSNASIGMKKYFVGVNSAGKVAISAKEIKEDNIGAQVLGLFTLSTGQDIWNQTN
B10: PRT-93 (protein)
chain: MANQEIRYSEVTPYHVTSVWTKGVTPPAKFTQGEDVFHAPYVANQGWYDITKTFNGKDDLLCGAATAGNMLHWWFDQNKEKIEAYLKKHPDKQKIMFGDQELLDVRKVINTKDDQTNSELFNYFRDKAFPGLSARRIGVMPDLVLDMFINGYYLNVYKTQTTDVNRTYQEKDRRGGIFDAVFTRGDQSKLLTSRHDFKEKNLKEISDLIKKELTEGKALGLSHTYANVRINHVINLWGADFDSNGNLKAIYVTDSDSNASIGMKKYFVGVNSAGKVAISAKEIKEDNIGAQVLGLFTLSTGQDSWNQTN
B11: PRT-95 (protein)
chain: MANQEIRYSEVTPYHITSVWTKGVTPPAKFTQGEDVFHAPYVANQGWYDITKTFNGKDDLLCGAATAGNMLHWWFDQNKEKIEAYLKKHPDKQKIMFGDQELLDVRKVINTKGDQTNSELFNYFRDKAFPNLSARRIGVMPDLVLDMFINGYYLNVGKTQTTDVNRTYQEKDKRGGIFDAVFTRGDQSKLLTSRHDFKEKNLKEISDLIKQELTEGKALGLSHTYANVRINHVINLWGADFDSNGNLKAIYVTDSDSNASIGMKKYFVGVNSAGKVAISAKEIEEDNIGAQVLGLFTLSTGQDSWNQTN
B12: PRT-89 (protein)
chain: MANQEIRYSEVTPYHVTSVWTKGVTPPAKFTQGEDVFHAPYVANQGWYDITKTFNGKDDLLCGAATAGNMLHWWFDQNKEKIEAYLKKHPEKQKIMFGDQELLDVRKVINTKDDQTNSELFNYFRDKAFPGLSARRLGVMPDLVLDMFINGYYLNVYKTQTTDVNRTYQEKDRRGGIFDAVFTRGDQSKLLTSRHDFKEKNLKEISDLIKKELTEGKALGLSHTYANVRINHVINLWGADFDSNGNLKAIYVTDSDSNASIGMKKYFVGVNSAGKVAISAKEIKEDNIGAQVLGLFTLSTGQDIWNQTN
B13: PRT-91 (protein)
chain: MANQEIRYSEETPYHITSVWTKGVTPPAKFTQGEDVFHAPYVANQGWYDITKTFNGKDDLLCGAATAGNMLHWWFDQNKEKIEAYLKKHPEKQKIMFGDQELLDVRKVINTKDDQTNSELFNYFRDKAFPNLSARRLGVMPDLVLDMFINGYYLNVGKTQTTDVNRTYQEKDKRGGIFDAVFTRGDQSKLLTSRHDFKEKNLKEISDLIKQELTEGKALGLSHTYANVRINHVINLWGADFDSNGNLKAIYVTDSDSNASIGMKKYFVGVNSAGKVAISAKEIEEDNIGAQVLGLFTLSTGQDIWNQTN

In this series the target is pooled human IgG (human IgG1,2,3 and 4).
B1 had an Enzyme Activity Endpoint Assay: Fab′2 of 8 ng/µL, an Enzyme Activity Endpoint Assay: Fc of 67 ng/µL, an Enzyme Activity Endpoint Assay: IgG of 27 ng/µL and an Enzyme Activity Endpoint Assay: scIgG of 51 ng/µL.

B2 had an Enzyme Activity Endpoint Assay: Fab′2 of 0 ng/µL, an Enzyme Activity Endpoint Assay: Fc of 0 ng/µL, an Enzyme Activity Endpoint Assay: IgG of 109 ng/µL and an Enzyme Activity Endpoint Assay: scIgG of 0 ng/µL.

B3 had an Enzyme activity endpoint: Fab′2 of 775 ng/µL, an Enzyme activity endpoint: Fc of 443 ng/µL, an Enzyme activity endpoint: IgG of 73 ng/µL and an Enzyme activity endpoint: scIgG of 0 ng/µL.

B4 registered an Enzyme Activity Endpoint Assay: Fab′2 of 4 ng/µL, an Enzyme Activity Endpoint Assay: Fc of 61 ng/µL, an Enzyme Activity Endpoint Assay: IgG of 45 ng/µL and an Enzyme Activity Endpoint Assay: scIgG of 53 ng/µL.

The protein B5 registered an Enzyme Activity Endpoint Assay: Fab′2 of 0 ng/µL, an Enzyme Activity Endpoint Assay: Fc of 52 ng/µL, an Enzyme Activity Endpoint Assay: IgG of 60 ng/µL and an Enzyme Activity Endpoint Assay: scIgG of 50 ng/µL.

In turn, B6 registered an Enzyme Activity Endpoint Assay: Fab′2 of 48 ng/µL, an Enzyme Activity Endpoint Assay: Fc of 110 ng/µL, an Enzyme Activity Endpoint Assay: IgG of 25 ng/µL and an Enzyme Activity Endpoint Assay: scIgG of 0 ng/µL.

For B7, the Enzyme Activity Endpoint Assay: Fab′2 stood at 44 ng/µL, the Enzyme Activity Endpoint Assay: Fc worked out at 106 ng/µL, the Enzyme Activity Endpoint Assay: IgG is 21 ng/µL and the Enzyme Activity Endpoint Assay: scIgG is 0 ng/µL.

The protein B8 displayed an Enzyme Activity Endpoint Assay: Fab′2 of 547 ng/µL, an Enzyme Activity Endpoint Assay: Fc of 120 ng/µL, an Enzyme Activity Endpoint Assay: IgG of 0 ng/µL and an Enzyme Activity Endpoint Assay: scIgG of 0 ng/µL.

On to B9, for which the Enzyme Activity Endpoint Assay: Fab′2 is 40 ng/µL, the Enzyme Activity Endpoint Assay: Fc turned out to be 104 ng/µL, the Enzyme Activity Endpoint Assay: IgG stood at 8 ng/µL and the Enzyme Activity Endpoint Assay: scIgG amounted to 6 ng/µL.

As for B10, the Enzyme Activity Endpoint Assay: Fab′2 came to 38 ng/µL, the Enzyme Activity Endpoint Assay: Fc was found to be 91 ng/µL, the Enzyme Activity Endpoint Assay: IgG stood at 11 ng/µL and the Enzyme Activity Endpoint Assay: scIgG amounted to 0 ng/µL.

For the protein B11, the Enzyme Activity Endpoint Assay: Fab′2 stood at 242 ng/µL, the Enzyme Activity Endpoint Assay: Fc was found to be 118 ng/µL, the Enzyme Activity Endpoint Assay: IgG came out at 102 ng/µL and the Enzyme Activity Endpoint Assay: scIgG was found to be 0 ng/µL.

In the case of B12, the Enzyme Activity Endpoint Assay: Fab′2 was determined as 45 ng/µL, the Enzyme Activity Endpoint Assay: Fc came out at 89 ng/µL, the Enzyme Activity Endpoint Assay: IgG is 34 ng/µL and the Enzyme Activity Endpoint Assay: scIgG stood at 0 ng/µL.

B13 displayed an Enzyme Activity Endpoint Assay: Fab′2 of 40 ng/µL, an Enzyme Activity Endpoint Assay: Fc of 102 ng/µL, an Enzyme Activity Endpoint Assay: IgG of 16 ng/µL and an Enzyme Activity Endpoint Assay: scIgG of 9 ng/µL.

The values above are taken from patent publication US20250027068.
